# Laboratory results published in the supplement of paper PMC9170038.
# Tested on: MS2 coat protein
# Assay: apparent KD of MS2 coat protein; designed switch direction (-1 OFF switch, 1 ON switch): 1; higher = weaker reporter binding
# Summary of the method: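 The buffer was Tris-HCl pH 7.5 with KCl, MgCl2, BSA, DTT, tRNA and Tween-20. In it, SNAP-549-labelled MS2 coat protein was titrated in doubling steps from 0.7 or 1.5 nM to 3 µM over chip-bound RNA switches transcribed by stalled E. coli RNA polymerase on Illumina chips. Apparent KD is the per-design median over clusters of curve fits to normalised fluorescence.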
# [1] = Eterna round: R95, input ligand: FMN 200 uM
# [2] = Eterna round: R95, input ligand: microRNA oligo, concentration not stated
# [3] = Eterna round: R95, input ligand: none
# [4] = input ligand: microRNA oligo, concentration not stated
Sequence,apparent KD of MS2 coat protein [1] [nM],apparent KD of MS2 coat protein [2] [nM],apparent KD of MS2 coat protein [3] [nM],apparent KD of MS2 coat protein (input ligand: FMN 200 uM) [nM],apparent KD of MS2 coat protein [4] [nM],apparent KD of MS2 coat protein (input ligand: none) [nM]
GGAGCCGGCACCGAGGAUAUUCAUAUUAAAACAUGAGGAUCACCCAUGUACGCCAGAAGGCGUUGGGAGAAGGCGGAUCGGCUCG [Xeonanis - 22] (puzzle: Same State 2),57.6,79.9,362,–,–,–
"GGAGCCGGCCUAGGAUAUUUCAUAAAAUAACAUGAGGAUCACCCAUGUAGGCCAGAAGGCCUUGGGAAGAAGGAGGUCGGCUCC [Loop Effect - U28] (Eterna round: R96, puzzle: Same State NG 2)",–,–,–,13.4,23.1,44.4
"GGAGCCGGCCUAGGAUAUUUCAUCAAAAAACAUGAGGAUCACCCAUGUAGGCCAGAAGGCCUUGGGAAGAAGGAGGUCGGCUCC [Loop Effect - C24] (Eterna round: R96, puzzle: Same State NG 2)",–,–,–,10.2,14.6,19
GGAGCCUGCACUGAGGAUAUUCGUAGUGUAACAUGAGGAUCACCCAUGUGUCGCCGUAGCGACUGGGAGAAGGCAGUGCGGCUCG [JL-ss2-3.07 ViennaUCT mod] (puzzle: Same State 2),25.9,48.4,84.3,–,–,–
GGAGCUGGCACCGAGGAUAUUCAUAUUAAAACAUGAGGAUCACCCAUGUAGGCCAGAAGGCCUUGGGAGAAGGCGGAUCAGCUCG [Xeonanis - 12] (puzzle: Same State 2),30.8,532,532,–,–,–
"GGAUGACGGACAGGAUAUUGGUGCUAAUGGUGUCAAGAAGGGUCUUCGAUAUAUACGACCAGUUACAUGAGGAUCACCCAUGUU [JR_SSNG1_Sub034] (Eterna round: R96, puzzle: Same State NG 1)",–,–,–,20.2,30.5,40
"GGAUGAUAGAUAGGAUAUUGAUUGUAAUUAUGUCAAGAAGGAUCUUUGAUUUAAACGACCAGUUACAUGAGGAUCACCCAUGUU [JR_SSNG1_Sub087] (Eterna round: R96, puzzle: Same State NG 1)",–,–,–,23.3,30.4,43.6
"GGAUGAUUAAUAGGAUAUUAUUUGUAAAAUGGUUAAGAAGGAUUAAUGAUUUAAACGACCAGAUACAUGAGGAUCACCCAUGUA [JR_SSNG1_Sub091] (Eterna round: R96, puzzle: Same State NG 1)",–,–,–,–,19.5,–
GGCACAAAAGCACAGGAUAUGCAAAAGAACACAUGAGGAUCACCCAUGUAGCCAAAUAACGGGCAGCAGAAGGGUGGGACUGCCA [Ceridi] (puzzle: Same State 2),78.2,693,485,–,–,–
GGCAGGUGCAGGCUUGCUUGCACCUGGAAACAUGAGGAUCACCCAUGUUUGGGACAAGCUUUGCUCCUCGUCUUAUC [JL ViennaUCT Isusreraar mod 1] (puzzle: Sensor for hsa-mir-208a),179,43.1,232,–,–,–
GGCAGGUGCAGGCUUGCUUGCACCUGGAAACAUGAGGAUCACCCAUGUUUGGGACAAGCUUUGCUCUUCGUUUUGUC [JL ViennaUCT Isusreraar mod 4] (puzzle: Sensor for hsa-mir-208a),35.3,40.4,47,–,–,–
"GGCCAGAGUCAAGGAUAUGCUACCGUUUCGGUAGCAGAAGGUGAUCACAUGAGGAUCACCCAUGUAUACGCUGGAAAGCGGGCC [JL SSNG1 3.64] (Eterna round: R96, puzzle: Same State NG 1)",–,–,–,452,480,1430
"GGCCGGCCGAACGGAGGGCCACAUGAGGAUCACCCAUGUACAUAGGAUAUCAUGUCAACGAGGCAUGAGAAGGGUGAUUAAAGC [Orenriaran] (Eterna round: R96, puzzle: Same State NG 3)",–,–,–,65,72.9,57.7
"GGCGAACAGGCCGACAUGAGGAUCACCCAUGUGGCCUCAUGUCAGGAUAUCGGGAAGGAGGAAACCGAGAAGGGACGGUGAGCC [AK SSNG3-V2-44] (Eterna round: R96, puzzle: Same State NG 3)",–,–,–,88.9,5.6,65.1
"GGCGAACAGGCUAACAUGAGGAUCACCCAUGUGGACUCAUGUUAGGAUAUCGGGAAGGAGGAAACCGAGAAGGGACGGUGAGCU [AK SSNG3-V2-45] (Eterna round: R96, puzzle: Same State NG 3)",–,–,–,191,18,34.1
"GGCGAACAGGCUAACAUGAGGAUCACCCAUGUGGACUUCGUGUAGGAUAUCGGGAAGGAGGAAACCGAGAAGGGCAAAGAAGCC [AK SSNG3-V2-49] (Eterna round: R96, puzzle: Same State NG 3)",–,–,–,195,88.2,93.7
GGCGCGGUCUCGCAGGAUAUCCACAAUCCUACAUGAGGAUCACCCAUGUCGCUGCAGGAUAUUAGGGAGAAGGGUGAUGCCGCGG [Bereri] (puzzle: Same State 2),20,30.4,41.6,–,–,–
"GGCGUCUGUCAAGGAUAUGCUACCGUUUCGGUAGCAGAAGGUGAUCACAUGAGGAUCACCCAUGUUUAGGCCAACAGGCCCGCC (Eterna round: R96, puzzle: Same State NG 1)",–,–,–,1270,222,1410
GGUAAACAUGAGGAUCACCCAUGUAAUAAUAUGGGAGGAUAUGGGAAUUAAUUAAUUAAACCAGAAGGCCUAAUGU [Mat - Same State 1 - D87] (puzzle: Same State 1),53.1,536,519,–,–,–
"GGUAAGAAUUAAGGAUAUCGAGUACAUAUGUUUAACAUGAGGAUCACCCAUGUGGGUUGCGGUAUCGAGAAGGUAAAAUAUAAG [Mat - same State NG 2 - JL mod - D64] (Eterna round: R96, puzzle: Same State NG 2)",–,–,–,51.8,26.4,75.7
GGUACACAUGAGGAUCACCCAUGUCGUAUGACAUGAGGAUAUGUACAGACUUCGGUCUGUACAGAAGGCAUGUGUC [SS1 - 1011 Omei Mod 4] (puzzle: Same State 1),–,24.5,–,–,–,–
"GGUACCAACACAGGAUAUGCUAUCCUUUGGGUAGCAGAAGGGUGAAACAUGAGGAUCACCCAUGUGGUGCCAGGGCGUGAGCCC [JL SSNG1 1.93] (Eterna round: R96, puzzle: Same State NG 1)",–,–,–,108,854,2190
"GGUAGGUUACUACCAAACAUGAGGAUCACCCAUGUAAAUGGGAAGGAUAUGGUACCGUUUCGGUACCAGAAGGUCCAAAAUAUU [JL Fiskers NG3ss - 2 final mod] (Eterna round: R96, puzzle: Same State NG 3)",–,–,–,418,356,1520
